Values of other authors in PMC9157009, “Protein proximity networks and functional evaluation of the casein kinase 1 gamma family reveal unique roles for CK1γ3 in WNT signaling” (The Journal of Biological Chemistry, 2022).

Tested on: β-catenin-dependent transcription
Details: siRNA screen, BAR firefly luciferase reporter, ref Biechele et al

- Average BAR firefly Luciferase (Raw) (raw signal per siRNA target): 104670
B1: MAGI1 (protein, UniProt Q96QZ7 1-1491, looked up)
Membrane-associated guanylate …: MSKVIQKKNHWTSRVHECTVKRGPQGELGVTVLGGAEHGEFPYVGAVAAVEAAGLPGGGEGPRLGEGELLLEVQGVRVSGLPRYDVLGVIDSCKEAVTFKAVRQGGRLNKDLRHFLNQRFQKGSPDHELQQTIRDNLYRHAVPCTTRSPREGEVPGVDYNFLTVKEFLDLEQSGTLLEVGTYEGNYYGTPKPPSQPVSGKVITTDALHSLQSGSKQSTPKRTKSYNDMQNAGIVHAENEEEDDVPEMNSSFTADSGEQEEHTLQETALPPVNSSIIAAPITDPSQKFPQYLPLSAEDNLGPLPENWEMAYTENGEVYFIDHNTKTTSWLDPRCLNKQQKPLEECEDDEGVHTEELDSELELPAGWEKIEDPVYGIYYVDHINRKTQYENPVLEAKRKKQLEQQQQQQQQQQQQQQQQQQQQTEEWTEDHSALVPPVIPNHPPSNPEPAREVPLQGKPFFTRNPSELKGKFIHTKLRKSSRGFGFTVVGGDEPDEFLQIKSLVLDGPAALDGKMETGDVIVSVNDTCVLGHTHAQVVKIFQSIPIGASVDLELCRGYPLPFDPDDPNTSLVTSVAILDKEPIIVNGQETYDSPASHSSKTGKVNGMKDARPSSPADVASNSSHGYPNDTVSLASSIATQPELITVHIVKGPMGFGFTIADSPGGGGQRVKQIVDSPRCRGLKEGDLIVEVNKKNVQALTHNQVVDMLVECPKGSEVTLLVQRGGLPVPKKSPKSQPLERKDSQNSSQHSVSSHRSLHTASPSHSTQVLPEFPPAEAQAPDQTDSSGQKKPDPFKIWAQSRSMYENRPMSPSPASGLSKGEREREINSTNFGECPIPDYQEQDIFLWRKETGFGFRILGGNEPGEPIYIGHIVPLGAADTDGRLRSGDELICVDGTPVIGKSHQLVVQLMQQAAKQGHVNLTVRRKVVFAVPKTENEVPSPASSHHSSNQPASLTEEKRTPQGSQNSLNTVSSGSGSTSGIGSGGGGGSGVVSTVVQPYDVEIRRGENEGFGFVIVSSVSRPEAGTTFAGNACVAMPHKIGRIIEGSPADRCGKLKVGDRILAVNGCSITNKSHSDIVNLIKEAGNTVTLRIIPGDESSNATLLTNAEKIATITTTHTPSQQGTQETRNTTKPKQESQFEFKAPQATQEQDFYTVELERGAKGFGFSLRGGREYNMDLYVLRLAEDGPAERCGKMRIGDEILEINGETTKNMKHSRAIELIKNGGRRVRLFLKRGDGSVPEYDPSSDRHGPATGPQGVPEVRAGPDRRQHPSLESSYPPDLHKSSPHGEKRAHARDPKGSREYSRQPNEHHTWNGTSRKPDSGACRPKDRAPEGRRDAQAERAAAANGPKRRSPEKRREGTRSADNTLERREKHEKRRDVSPERRRERSPTRRRDGSPSRRRRSLERLLEQRRSPERRRGGSPERRAKSTDRRRARSPERRRERSLDKRNREDRASHREREEANLKQDAGRSSRHPPEQRRRPYKECSTDLSI
- Fold over control siRNA (fold over control siRNA): 3.957
